For the data set, the system named is tet operator sequence. The experiment in a line: β-galactosidase activity of a tetracycline-regulated promoter in transformed E. coli with revTetR, in the presence and absence of anhydrotetracycline (atc). It counts as cell-based, Escherichia coli. Conditions: for β-Galactosidase Activity, Cultured Without ATC: RevTetR isolate cultured in the absence of anhydrotetracycline (ATC); for β-Galactosidase Activity, Cultured With ATC: RevTetR isolate cultured in the presence of anhydrotetracycline (ATC). As for the experimental part:
The relative activity of revTetR repressors was determined at 28° C. and 37° C. for each clone by measuring β-galactosidase activity of a tetracycline-regulated promoter in transformed Escherichia coli in the presence and absence of the tetracycline analog, anhydrotetracycline (atc). The relative β-galactosidase activity was measured in standard Miller units and is presented as the percent of maximal expression as measured in the absence of Tet repressor. […] With respect to each mutant, as well as the wild-type controls, FIG. 2 provides two horizontal bars; the upper horizontal bar represents the level of β-galactosidase activity in the absence of anhydrotetracycline (−atc) while the lower horizontal bar represents the level of β-galactosidase activity in the presence of anhydrotetracycline (+atc).
The pool of mutated Tet repressors was cloned into plasmid pWH1411 (Baumeister et al., 1992, Proteins: Struct. Funct. Genet. 14: 168-77), which carries a TetR(B) gene, to provide a TetR(BD) chimera that included, as the amino-terminal portion, amino acid residues 1 to 50 of the TetR(B) gene and, as the carboxyl-terminal portion, amino acid residues 51 to 208 of the TetR(D) gene. The resulting plasmid pool was screened in a genetic assay which positively selects for a functional interaction between a Tet repressor and its cognate operator using E. coli strain WH207(λWH25) (the construction of this strain is described in detail in Wissmann et al., (1991) Genetics 128: 225-32). In this E. coli strain, tet operators direct the expression of divergently arranged β-galactosidase (lacZ) and Lac repressor (lacI) genes and the lac regulatory region directs the expression of a galactokinase (galK) gene on plasmid pWH414. Binding of Tet repressors to tet operators turns off transcription of the lacI and lacZ genes. The absence of Lac repressor allows for expression of the galK gene, which enables the E. coli strain to use galactose as a sole carbon source, which serves as one marker. The lacZ^− phenotype serves as a second marker. Thus, bacteria containing Tet repressors which bind to tet operators, have a Gal^+, lacZ^− phenotype. Bacteria containing wild-type Tet repressors have a Gal^+, lacZ^− phenotype in the absence of tetracycline. Modified “reverse” Tet repressors (revTetR) were selected based upon a Gal^+, lacZ^− phenotype in the presence of tetracycline.
The ability of each revTetR clone to bind to its cognate tet operator sequence and regulate transcription in a prokaryotic organism, Escherichia coli, in the presence and absence of a tetracycline analog (anhydrotetracycline, atc) was determined (Table 3, FIG. 2). The relative ratios of non-repressed to repressed levels of transcription for the 15 clones range from about 1.4-fold to about 50-fold at 28° C. and from about 1.3-fold to 40-fold at 37° C. For example, clone 4b comprising an amino acid substitution of glutamic acid for glycine at position 96 (e.g., SEQ ID NO. 24) repressed transcription 19-fold at 37° C. but to a less extent at 28° C. (5.7-fold, Table 3). Furthermore, clones 14, 5a and 7 comprising the arginine for glycine substitution at position 96 and further comprising a substitution or substitutions of serine for threonine at position 103 and valine for glutamic acid at position 114; leucine for proline at position 159; or glutamine to histidine at position 188, respectively, have pronouncedly different activities.
wherein each underlined base was present in approximately 85% of the oligonucleotides, while the remaining approximately 15% of the oligonucleotides contained one of the other three, non-wild type bases at that position. Similar mutagenic, partially randomized oligonucleotides were prepared for mutagenesis of the coding regions for amino acids 14-25 and 93-102. It was predicted that, according to a binomial distribution, each oligonucleotide would contain three to four mutations. […]

B1: TetRrevAD3/9: revTetR(BD) E15Q L17L L55M I59R (protein)
chain: MSRLDKSKVINSALQLLNEVGIEGLTTRKLAQKLGVEQPTLYWHVKNKRALLDAMAVERLARHHDYSLPAAGESWQSFLRNNAMSFRRALLRYRDGAKVHLGTRPDEKQYDTVETQLRFMTENGFSLRDGLYAISAVSHFTLGAVLEQQEHTAALTDRPAAPDENLPPLLREALQIMDSDDGEQAFLHGLESLIRGFEVQLTALLQIV
modifications: Modified tetracycline repressor
notes: revTetR(BD) E15Q L17L L55M I59R
With B1, the “β-Galactosidase Activity, Cultured Without ATC” value was determined as 60.2932 and the “β-Galactosidase Activity, Cultured With ATC” value amounted to 4.2427.

B2: TetRrevAtc4-13: revTetR(BD) E58N I59T L60F H63Y (protein)
chain: MSRLDKSKVINSALELLNEVGIEGLTTRKLAQKLGVEQPTLYWHVKNKRALLDALAVNTFARYHDYSLPAAGESWQSFLRNNAMSFRRALLRYRDGAKVHLGTRPDEKQYDTVETQLRFMTENGFSLRDGLYAISAVSHFTLGAVLEQQEHTAALTDRPAAPDENLPPLLREALQIMDSDDGEQAFLHGLESLIRGFEVQLTALLQIV
modifications: Modified tetracycline repressor
notes: revTetR(BD) E58N I59T L60F H63Y
Turning to B2, the “β-Galactosidase Activity, Cultured Without ATC” value is 98.8175 and the “β-Galactosidase Activity, Cultured With ATC” value came to 8.1397.

B3: TetRrevAF4/4: revTetR(BD) G24A R94P D95E G102D (protein)
chain: MSRLDKSKVINSALELLNEVGIEALTTRKLAQKLGVEQPTLYWHVKNKRALLDALAVEILARHHDYSLPAAGESWQSFLRNNAMSFRRALLRYPEGAKVHLDTRPDEKQYDTVETQLRFMTENGFSLRDGLYAISAVSHFTLGAVLEQQEHTAALTDRPAAPDENLPPLLREALQIMDSDDGEQAFLHGLESLIRGFEVQLTALLQIV
modifications: Modified tetracycline repressor
notes: revTetR(BD) G24A R94P D95E G102D
As for B3, the “β-Galactosidase Activity, Cultured Without ATC” value is reported as 94.4528 and the “β-Galactosidase Activity, Cultured With ATC” value is 3.8273.

B4: TetRrevAD3/10: revTetR(BD) N18Y G24G L51L D53Y A54V (protein)
chain: MSRLDKSKVINSALELLYEVGIEGLTTRKLAQKLGVEQPTLYWHVKNKRALLYVLAVEILARHHDYSLPAAGESWQSFLRNNAMSFRRALLRYRDGAKVHLGTRPDEKQYDTVETQLRFMTENGFSLRDGLYAISAVSHFTLGAVLEQQEHTAALTDRPAAPDENLPPLLREALQIMDSDDGEQAFLHGLESLIRGFEVQLTALLQIV
modifications: Modified tetracycline repressor
notes: revTetR(BD) N18Y G24G L51L D53Y A54V
For the molecule B4, the “β-Galactosidase Activity, Cultured Without ATC” value came out at 89.1669 and the “β-Galactosidase Activity, Cultured With ATC” value is 3.5004.

B5: TetRrevAF4/5: revTetR(BD) E15G L16L D95A V99G (protein)
chain: MSRLDKSKVINSALGLLNEVGIEGLTTRKLAQKLGVEQPTLYWHVKNKRALLDALAVEILARHHDYSLPAAGESWQSFLRNNAMSFRRALLRYRAGAKGHLGTRPDEKQYDTVETQLRFMTENGFSLRDGLYAISAVSHFTLGAVLEQQEHTAALTDRPAAPDENLPPLLREALQIMDSDDGEQAFLHGLESLIRGFEVQLTALLQIV
modifications: Modified tetracycline repressor
notes: revTetR(BD) E15G L16L D95A V99G
As to B5, the “β-Galactosidase Activity, Cultured Without ATC” value was found to be 105.33 and the “β-Galactosidase Activity, Cultured With ATC” value came to 0.9927.

B6: TetRrevAD2/5: revTetR(BD) L17F L55L L60F R62V (protein)
chain: MSRLDKSKVINSALELFNEVGIEGLTTRKLAQKLGVEQPTLYWHVKNKRALLDALAVEIFAVHHDYSLPAAGESWQSFLRNNAMSFRRALLRYRDGAKVHLGTRPDEKQYDTVETQLRFMTENGFSLRDGLYAISAVSHFTLGAVLEQQEHTAALTDRPAAPDENLPPLLREALQIMDSDDGEQAFLHGLESLIRGFEVQLTALLQIV
modifications: Modified tetracycline repressor
notes: revTetR(BD) L17F L55L L60F R62V
With B6, the “β-Galactosidase Activity, Cultured Without ATC” value is on record as 50.466 and the “β-Galactosidase Activity, Cultured With ATC” value worked out at 1.4141.

B7: TetRrevAF3/6: revTetR(BD) E23K D95H L101H (protein)
chain: MSRLDKSKVINSALELLNEVGIKGLTTRKLAQKLGVEQPTLYWHVKNKRALLDALAVEILARHHDYSLPAAGESWQSFLRNNAMSFRRALLRYRHGAKVHHGTRPDEKQYDTVETQLRFMTENGFSLRDGLYAISAVSHFTLGAVLEQQEHTAALTDRPAAPDENLPPLLREALQIMDSDDGEQAFLHGLESLIRGFEVQLTALLQIV
modifications: Modified tetracycline repressor
notes: revTetR(BD) E23K D95H L101H
Take B7: the “β-Galactosidase Activity, Cultured Without ATC” value is given as 77.2272 and the “β-Galactosidase Activity, Cultured With ATC” value turned out to be 1.0546.

B8: TetRrevAF4/9: revTetR(BD) L16R E19D E23D D95G V99A G102G (protein)
chain: MSRLDKSKVINSALERLNDVGIDGLTTRKLAQKLGVEQPTLYWHVKNKRALLDALAVEILARHHDYSLPAAGESWQSFLRNNAMSFRRALLRYRGGAKAHLGTRPDEKQYDTVETQLRFMTENGFSLRDGLYAISAVSHFTLGAVLEQQEHTAALTDRPAAPDENLPPLLREALQIMDSDDGEQAFLHGLESLIRGFEVQLTALLQIV
modifications: Modified tetracycline repressor
notes: revTetR(BD) L16R E19D E23D D95G V99A G102G
On to B8, for which the “β-Galactosidase Activity, Cultured Without ATC” value came out at 110.616 and the “β-Galactosidase Activity, Cultured With ATC” value came out at 1.3761.

B9: TetRrevAD2/8: revTetR(BD) V20G D53N A54A A56G V57L I59F L60L R62R (protein)
chain: MSRLDKSKVINSALELLNEGGIEGLTTRKLAQKLGVEQPTLYWHVKNKRALLNALGLEFFARHHDYSLPAAGESWQSFLRNNAMSFRRALLRYRDGAKVHLGTRPDEKQYDTVETQLRFMTENGFSLRDGLYAISAVSHFTLGAVLEQQEHTAALTDRPAAPDENLPPLLREALQIMDSDDGEQAFLHGLESLIRGFEVQLTALLQIV
modifications: Modified tetracycline repressor
notes: revTetR(BD) V20G D53N A54A A56G V57L I59F L60L R62R
On to B9, for which the “β-Galactosidase Activity, Cultured Without ATC” value is recorded as 73.8584 and the “β-Galactosidase Activity, Cultured With ATC” value was determined as 1.8468.

B10: TetRrevAF3/8: revTetR(BD) E15V L16L N18H E19D V20D R94P D95H H100N (protein)
chain: MSRLDKSKVINSALVLLHDDGIEGLTTRKLAQKLGVEQPTLYWHVKNKRALLDALAVEILARHHDYSLPAAGESWQSFLRNNAMSFRRALLRYPHGAKVNLGTRPDEKQYDTVETQLRFMTENGFSLRDGLYAISAVSHFTLGAVLEQQEHTAALTDRPAAPDENLPPLLREALQIMDSDDGEQAFLHGLESLIRGFEVQLTALLQIV
modifications: Modified tetracycline repressor
notes: revTetR(BD) E15V L16L N18H E19D V20D R94P D95H H100N
For the molecule B10, the “β-Galactosidase Activity, Cultured Without ATC” value amounted to 95.5476 and the “β-Galactosidase Activity, Cultured With ATC” value came out at 2.7257.

B11: TetRrevAF4/6: revTetR(BD) E15D L17I N18T E23G A54V D95A (protein)
chain: MSRLDKSKVINSALDLITEVGIGGLTTRKLAQKLGVEQPTLYWHVKNKRALLDVLAVEILARHHDYSLPAAGESWQSFLRNNAMSFRRALLRYRAGAKVHLGTRPDEKQYDTVETQLRFMTENGFSLRDGLYAISAVSHFTLGAVLEQQEHTAALTDRPAAPDENLPPLLREALQIMDSDDGEQAFLHGLESLIRGFEVQLTALLQIV
modifications: Modified tetracycline repressor
notes: revTetR(BD) E15D L17I N18T E23G A54V D95A
For the molecule B11, the “β-Galactosidase Activity, Cultured Without ATC” value is given as 100.702 and the “β-Galactosidase Activity, Cultured With ATC” value was determined as 3.7257.

The values above are taken from patent publication US20030186281A1, “Modified tetracycline repressor protein compositions and methods of use” (priority 2001, published 2003).
